One experiment addresses T1, cynomolgus PD-1 (cynomolgus, UniProt B0LAJ3 25-170).
T1 construct: also called cyno PD-1
The experiment is described as follows: ELISA: plate-coated PD-1, detection by anti-kappa-HRP. (ELISA stands for enzyme-linked immunosorbent assay.)

A further experiment concerns the target T2, human PD-1 (human, UniProt Q15116 25-167, limits assumed).
T2 construct: also called huPD-1
Described as above.

The target of the next experiment is T3, mouse PD-1 (mouse, UniProt Q02242 25-167, limits assumed).
T3 sequence (looked up): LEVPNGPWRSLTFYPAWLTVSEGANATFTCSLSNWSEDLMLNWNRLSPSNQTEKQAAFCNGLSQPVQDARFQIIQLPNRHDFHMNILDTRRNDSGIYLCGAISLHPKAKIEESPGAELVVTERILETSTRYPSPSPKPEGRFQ
Described as above.

In the next experiment the target is T4, biotinylated huPD-1 (human, UniProt Q15116 25-167, limits assumed, biotinylated (site not stated)).
T4 construct: also called human PD-1
The experiment is described as follows: BLI (biosensor): biotinylated huPD-1 on streptavidin tips, fragment in solution. As to the method:
(§1) Anti-human IgG Fc (AHC) or Streptavidin (SA) biosensor were equilibrated in assay buffer for 20 minutes. Fe-tagged mouse and cynomolgus PD-1 was diluted to 5 μg/mL and biotinylated huPD-1 article was diluted to 0.5 μg/mL in assay buffer (1×PBS, 1% BSA, 0.05% Tween20). […] PD-1 was loaded on tips for 180 s followed by a 180 s association phase with PD-1 and 180 s dissociation phase in assay buffer.

Another experiment deals with T5, Fc-tagged mouse PD-1 (mouse, UniProt Q02242 25-167, limits assumed).
T5 construct: Printed 'Fe-tagged', read as Fc-tagged; also called Fe-tagged mouse PD-1 (so in the source); not shown: Fc tag
T5 sequence (looked up): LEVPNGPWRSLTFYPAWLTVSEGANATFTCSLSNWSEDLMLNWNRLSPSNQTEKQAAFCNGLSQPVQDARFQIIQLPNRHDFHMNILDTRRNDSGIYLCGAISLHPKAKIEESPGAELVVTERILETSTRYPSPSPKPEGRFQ
In words: BLI (biosensor): Fc-tagged PD-1 on anti-human IgG Fc tips, fragment in solution. As to the method:
as §1

The target of experiment [1] is T6, Fc-tagged cynomolgus PD-1 (cynomolgus, UniProt B0LAJ3 25-170).
T6 construct: Printed 'Fe-tagged', read as Fc-tagged; also called cyno PD-1; Fe-tagged cynomolgus PD-1 (so in the source)
The experiment is described as above. As to the method: as §1

Usually Kd stands for the equilibrium constant for the complex coming apart. Read a low Kd as tighter binding.

T2 sequence (Q15116 25-167 limits assumed): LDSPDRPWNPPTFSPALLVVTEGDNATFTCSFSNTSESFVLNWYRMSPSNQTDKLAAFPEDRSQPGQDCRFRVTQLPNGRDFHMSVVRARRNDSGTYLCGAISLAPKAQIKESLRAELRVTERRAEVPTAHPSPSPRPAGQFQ
T4 sequence (Q15116 25-167 limits assumed): as above
T1 sequence (B0LAJ3 entry or part of it limits assumed): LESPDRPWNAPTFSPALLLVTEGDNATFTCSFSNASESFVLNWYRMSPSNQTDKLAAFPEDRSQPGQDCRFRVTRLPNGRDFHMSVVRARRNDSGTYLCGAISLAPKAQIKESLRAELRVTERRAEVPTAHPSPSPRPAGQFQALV
T6 sequence (B0LAJ3 entry or part of it limits assumed): as above

B1: PD1AB69 (bispecific antibody, human IgG1, kappa)
heavy: EVQLLESGGGLVQPGGSLRLSCAASGFTFSSYDMSWVRQAPGKGLEWVSGITISGGSTYYADSVKGRFTISRDNSKNTLYLQMNSLRAEDTAVYYCARGRGGSGWLDYWGQGTTVTVSSASTKGPSVFPLAPSSKSTSGGTAALGCLVKDYFPEPVTVSWNSGALTSGVHTFPAVLQSSGLYSLSSVVTVPSSSLGTQTYICNVNHKPSNTKVDKKVEPKSCDKTHTCPPCPAPEAAGAPSVFLFPPKPKDTLMISRTPEVTCVVVDVSHEDPEVKFNWYVDGVEVHNAKTKPREEQYNSTYRVVSVLTVLHQDWLNGKEYKCKVSNKALPAPIEKTISKAKGQPREPQVYTLPPSREEMTKNQVSLTCLVKGFYPSDIAVEWESNGQPENNYKTTPPVLDSDGSFFLYSKLTVDKSRWQQGNVFSCSVMHEALHNHYTQKSLSLSPGGGGSEGGGSEGGGSEDIQMTQSPSSLSASVGDRVTITCQASRDILNYLAWYQQKPGKAPKLLIYAASSLQSGVPSRFSGSGSGTDFTLTISSLQPEDFATYYCQQSYSTPPTFGCGTKVDIKGGGGSGGGGSGGGGSGGGGSEVQLVQSGAEVKKPGASVKVSCKASGYSFTTYYMHWVRQAPGQCLEWMGIINPSGGSTSYAQKFQGRVTMTRDTSTSTVYMELSSLRSEDTAVYYCASGWVYWGQGTLVTVSS
light: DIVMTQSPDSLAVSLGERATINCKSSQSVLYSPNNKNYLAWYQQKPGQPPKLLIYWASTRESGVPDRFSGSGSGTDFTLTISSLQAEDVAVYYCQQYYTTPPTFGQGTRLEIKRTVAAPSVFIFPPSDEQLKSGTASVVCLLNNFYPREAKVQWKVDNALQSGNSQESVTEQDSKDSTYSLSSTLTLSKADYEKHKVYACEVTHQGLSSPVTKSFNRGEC
For B1, the binding result in the experiment with cynomolgus PD-1, with human PD-1 and with mouse PD-1 was “binds” each time.

B2: Fab moiety of the PD1AB53 (Fab, V domains shown)
VH: EVQLLESGGGLVQPGGSLRLSCAASGFTFSSYDMSWVRQAPGKGLEWVSGITISGGSTYYADSVKGRFTISRDNSKNTLYLQMNSLRAEDTAVYYCARGRGGSGWLDYWGQGTTVTVSS
VL: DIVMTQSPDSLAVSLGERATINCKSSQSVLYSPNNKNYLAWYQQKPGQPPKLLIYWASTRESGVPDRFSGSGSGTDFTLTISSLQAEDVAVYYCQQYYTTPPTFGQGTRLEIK
notes: also called PD1AB53 Fab
For the molecule B2, the Kd in the experiment with biotinylated huPD-1 came out at 32.6 nM; in experiment [1], 30.3 nM. Besides, the binding result in the experiment with Fc-tagged mouse PD-1 is reported as “no binding (tested: PD1AB53 Fab: dilution series from 500 nM)”.
